Measured values: article PMC2592702 (PLoS ONE, 2008)

Experiments:
[1] = molecular target: T1, POM2 epitope-mimicking peptide of the competition BIAcore experiment (Mus musculus); experiment: SPR; […] (100–[…]), 1 h at room temperature; […]; HBS-EP; conditions: both partners purified
T1 chain: QPHGGGW

[2] = molecular target: T2, N-terminally truncated recombinant mouse PrP, residues 121–231 (rmPrP_(121-231)) (Mus musculus, UniProt P04925); experiment: ELISA
[3] = molecular target: T2, N-terminally truncated recombinant …; experiment: SPR; […]; antibody 420 pM–110 nM in HBS-EP at 20 µl/min, 20 min dissociation, […]; conditions: both partners purified

T2 sequence (P04925 whole entry, looked up, the tested form may be a part): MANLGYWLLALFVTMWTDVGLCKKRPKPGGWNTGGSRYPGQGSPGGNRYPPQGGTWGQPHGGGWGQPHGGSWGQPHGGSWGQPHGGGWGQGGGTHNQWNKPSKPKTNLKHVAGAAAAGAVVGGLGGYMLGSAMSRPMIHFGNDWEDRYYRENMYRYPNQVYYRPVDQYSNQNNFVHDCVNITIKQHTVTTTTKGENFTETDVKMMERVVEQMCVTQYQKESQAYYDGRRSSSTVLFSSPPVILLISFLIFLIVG

B1: POM2 scFv, purified and refolded (scFv, V domains shown)
VH: EVKLQESGGEVVRPGTSVKVSCKASGYAFTNYLIEWVKQRPGQGLEWIGVINPGSGDTNYNEKFKGKATLTADKSSSTAYMQLNSLTSDDSAVYFCARSGVAAPYYYAMDYWGQGTSVTVSS
VL: DIVMTQSHKFMSTSVGDRVSITCKASQDVGTALAWYQQKPGQSPKLLIYWASTRHTGVPDRFTGSGSGTDFTLTISNVQSEDLSDYFCQQYSSYPTFGGGTKLEIK
Kd [1]: 20 nM

B2: POM11 monoclonal antibody (antibody, V domains shown)
VH: DVMLVESGPELEKPGASVRISCKASGYSFTGYNMDWVKQNNGKSLEWIGSIDPYYGGTSYNQSFKDKATLTVDKSSGTAYMQLKSLTSDDSAVYYCARGGVGPYYYALDYWGQGTSVTVSS
VL: DIVLTQSHKFMSTSVGDRVSITCKASQDVGSAVAWYQQKPGQSPKLLIYWSSTRHTGVPDRFTGSGSGTDFTLTISNVQSEDLADYFCHQYNSSPTFGRGTKLELK
binding result [2]: no binding

B3: POM19 monoclonal antibody (antibody, V domains shown)
VH: EVKLMESGAELMKPGGSVKISCKATGYTFYSYWIEWIKRRPGHGLEWIGEILPGTGDTKYSEKFKGRATFTADPSSNTAYMQLSSLTSEDSAVYYCTRLIYYRYDDYALDYWGQGTSVTVSS
VL: DIVMTQSPAVMSASPGEKVTMTCSASSSISYMHWYQQKPGTSPKRWIFDTSKLASGVPARFSGSGSGTSYSPTISSMEAEDAATYFCHQRIIYPTFGGGTKLEMK
Kd [3]: 0.87 nM
